Reference: the PETadex activity labels

Tests used:
PET [1] = assay: Proxy for plastic degradation [Weight/mass loss]
PCL = assay: Proxy for plastic degradation [Residual activity]; details: pH 8
PET [2] = assay: Proxy for plastic degradation [Released monomer concentration (HPLC/LC-MS) (MHET+TPA)]; details: pH 8
PET [3] = assay: Proxy for plastic degradation [adsorption equilibrium constant (K_A), utilising heterogeneous kinetic model]; details: pH 8
PET [4] = assay: Proxy for plastic degradation [MHET inhibitor binding constant (beta), utilising the kinetic inhibition model]; details: pH 8
PET [5] = assay: Proxy for plastic degradation [hydrolysis rate constant (k_h), utilising heterogeneous kinetic model] (µmol/(cm²·h)); details: pH 8
PET [6] = assay: Proxy for plastic degradation [Absorbance (nm)]; details: pH 8.5
PBSA = assay: Proxy for plastic degradation [kcat/Km (catalytic efficiency)] (mM⁻¹s⁻¹); details: pH 8.2
pNP-C6 = details: pH 8; 30 °C
[7] = Proxy for plastic degradation [HPLC-UV] (µmol); details: pH 7
[8] = Proxy for plastic degradation [Weight/mass loss]; details: pH 8
p-NP-C4 = details: pH 8
pNPB = assay: Proxy for plastic degradation [Residual activity]; details: pH 8

B1: unnamed (protein)
chain: ANPYERGPNPTDALLEARSGPFSVSEENVSRLSASGFGGGTIYYPRENNTYGAVAISPGYTGTEASIAWLGERIASHGFVVITIDTITTLDQPDSRAEQLNAALNHMINRASSTVRSRIDSSRLAVMGHSMGGGGSLRLASQRPDLKAAIPLTPWHLNKNSSVTVPTLIIGADLDTIAPVATHAKPFYNSLPSSISKAYLELDGATHFAPNIPNKIIGKYSVAWLKRFVDNDTRYTQFLCPGPRDGLFGEVEEYRSTCPFY
Q: What does the source list for B1?
A: Proxy for plastic degradation (PET [1]; pH 8): 15.9%; Proxy for plastic degradation (PCL): 36.5%; Proxy for plastic degradation (PET [2]): 27 µM; Proxy for plastic degradation (PET [3]): 0.338 mL/µg; Proxy for plastic degradation (PET [4]): 0.738 L/mmol; Proxy for plastic degradation (PET [5]): 0.094

B2: unnamed (protein)
chain: MLAVWDDTLAHPVRGRDRELATLTGLLDNTSGRRGTGMVVVGAPGTGKTTLLNALVEHAEGFQVLWAEGSAAESDVRFAGVEQLLRPLESLVSLLPDDRGRALRPVWGLPADDEGQVGSLAVPAAVSALLGLAARRQPVLCCVDSAHLLDSASLSALAFAARRAHHAGVVFVFAVDCTADTEVDTETSVWGELPRLRLGRLDDEAAHALLRDRLGASLPHDLADSLLDVGHGNPLALVELAESLTPEHLCGRAAPPSSPPPEGRLCRTLGHRLSALSEGAREVVALAGISEGLDEQLTCRVLPHHRSTLAEAVRSGLVVLDGDTVRTAADTVPSALLAALTPQDIVQAHHRMAEAAEAVGDRDRAVWHRAAIAMAPDPALVADLDDIAERARAAAAHATAAAASERAAALTSDTKERARRLVAAATDHWASGRPQRARTALRLAAPLSDSVLGARVSRLAGEIELRRGDPSVAATKLISTARQLASTHRTLAASALMLAGEASFVAGDNARYCLTAKDAALLCGPEEWPATRVVREHFTAMSATFRGEHSAAAAPLRSLVELGETTPDPTAKTLASQAAFTLGDAERSRDLALQAVVCARARGDESGVPWALVYAALSALLSGQLSAASTTALEGLQVARSLGQSNSAVDHVTVLAMLAALQGDEETALQRLQAANTELAERGLGRPSALATWAAACVDLAHDRPAEAFDRFRRMTVGRSRHCVPLRVMAVPHFVEAAVRCGEKEVARRSLVTFEHWANTTGGTARVALAHRCHALLAEQDGEAQERFTEAVRLHREADAPYDLAVTQLLYASHLRRSRRPKQARELLREAVQLFDDLGATHWVERASQELRACGHPGRGKPHLSRGLSPQQERIAQLVADGATNKEIATQLFISHRTVDHHLRNIFAKLDVRSRVQLAALFR
Q: With B2 as the protein, how does the “Proxy for plastic degradation” value (PET [6]) read?
A: 12.5 mM

Q: What about the “Proxy for plastic degradation” value (PBSA) of the same protein?
A: 308

B3: unnamed (protein)
chain: MKKIYAVALFFLATSFAPNIIFAQCGDVTIESLTNPGPYEVATLTEADGLRNGPDYQGATVYYPTNATPPFASIAIVPGFTALPSSVEEWGPFYASHGIVTIIIGTNSLFDFPEERAVALIDALETMRQENTRSSSPLENQLDVDKFAVSGWSMGGGGAQRAAVLDNTIKGVVALCPWLPNASLNHDSPVLIFSGENDPTAPPAQHADLHYAATPNTTNKLLFEIENGNHSVANTPNGGNGAVGKIALSWLKLYVDENDCYCPLLTESLLVDPPAASKVLSSFECELLSVPDNSFAISVYPNPTHDFVNINSTNPVHFEVYSALGQRLLSGELTQSEKQIDFSNFAKGLYYVRLGNETVKIVRN
Q: Which Km (pNP-C6) does the source give for B3 here?
A: 1370 µM

Q: And the kcat (pNP-C6)?
A: 19.1 s⁻¹

Q: What about the kcat/Km (pNP-C6) of the same protein?
A: 13900 M⁻¹ s⁻¹

B4: unnamed (protein)
chain: ANPYERGPNPTDALLEARSGPFSVSEENVSRLSASGFGGGTIYYPRENNTYGAVAISPGYTATEASIAWLGERIASHGFVVITIDTITTLDQPDSRAEQLNAALNHMINRASSTVRSRIDSSRLAVMGHSMGGGGSLRLASQRPDLKAAIPLTPWHLNKNWSSVTVPTLIIGADLDTIAPVATHAKPFYNSLPSSISKAYLELDGATHAAPNIPNKIIGKYSVAWLKRFVDNDTRYTQFLCPGPRDGLFGEVEEYRSTCPFYPNSSSVDKLAAALE
Q: Which “Proxy for plastic degradation” value (PET [1]; pH 9, 6 h) does the source give for B4 here?
A: 20%

B5: unnamed (protein)
chain: MANPYERGPNPTDALLEASSGPFSVSEENVSRLSASGFGGGTIYYPRENNTYGAVAISPGYTGTEASIAWLGGRIASHGFVVITIDTITTLDQPDSRAEQLNAALNHMINRASSTVRSRIDSSRLAVMGHSMGGGGTPRLASQRPDLKAAIPLTPWHLNKNRSSVTVPTLIIGADLDTIAPVATHAKPFYNSLPSSISKAYLELDGATHFAPNIPNKIIGKYSVAWLKRFVDNDTRYTQFLCPGPRDGLFGEVEEYCSTCPF
Q: With B5 as the protein, how does the “Proxy for plastic degradation” value [7] read?
A: 0.6

B6: unnamed (protein)
chain: MARTMRSRVVAGAVACAMSIAPFAGTTAVMTLATTHAAMAATAPAAGYAATRYPIILVHGLSGTDKYAGVLEYWYGIQEDLQQNGATVYVANLSGFQSDDGPNGRGEQLLAYVKTVLAATGATKVNLVGHSQGGLSSRYVAAVAPDLVASVTTIGTPHRGSEFADFVQDVLAYDPTGLSSSVIAAFVNVFGILTSSSHNTNQDALAALQTLTTARAATYNQNYPSAGLGAPGSCQTGAPTETVGGNTHLLYSWAGTAIQPTLSVFGVTGATDTSTLPLVDPANVLDLSTLALFGTGTVMINRGSGQNDGLVSKCSALYGKVLSTSYKWNHLDEINQLLGVRGAYAEDPVAVIRTHANRLKLAGV
Q: For B6, which “Proxy for plastic degradation” value [8] is on record?
A: 2.8 mg

Q: And the “Proxy for plastic degradation” value (PET [1]; pH 8)?
A: 0 mg

B7: unnamed (protein)
chain: MPPHAARPGPAQNRRGRAMAVITPRRERSSLLSRALRFTAAAATALVTAVSLAAPAHAANPYERGPNPTDALLEARSGPFSVSEERASRFGADGFGGGTIYYPRENNTYGAVAISPGYTGTQASVAWLGERIASHGFVVITIDTNTTLDQPDSRARQLNAALDYMINDASSAVRSRIDSSRLAVMGHSMGGGGTLRLASQRPDLKAAIPLTPWHLNKNWSSVRVPTLIIGADLDTIAPVLTHARPFYNSLPTSISKAYLELDGATHFAPNIPNKIIGKYSVAWLKRFVDNDTRYTQFLCPGPRDGLFGEVEEYRSTCPF
Q: What does the source list for B7?
A: Km (p-NP-C4; 60 °C): 673 µM; kcat (p-NP-C4; 60 °C): 483 s⁻¹; kcat/Km (p-NP-C4; 60 °C): 718000 M⁻¹ s⁻¹

B8: unnamed (protein)
chain: SNPYQRGPNPTRSALTADGPFSVATYTVSRLSVSGFGGGVIYYPTGTSLTFGGIAMSPGYTADASSLAWLGRRLASHGFVVLVINTNSRFDYPDSRASQLSAALNYLRTSSPSAVRARLDANRLAVAGHSMGGGGTLRIAEQNPSLKAAVPLTPWHTDKTFNTSVPVLIVGAEADTVAPVSQHAIPFYQNLPSTTPKVYVELDNASHFAPNSNNAAISVYTISWMKLWVDNDTRYRQFLCNVNDPALSDFRTNNRHCQHHHHHH
Q: What does the source list for B8?
A: Proxy for plastic degradation (pNPB; 40 °C): 100%; Proxy for plastic degradation (pNPB; 50 °C): 100%; Proxy for plastic degradation (pNPB; 90 °C): 0%; Proxy for plastic degradation (pNPB; 95 °C): 0%

B9: unnamed (protein)
chain: MEMLEEHRCFEGWQQRWRHDSSTLNCPMTFSIFLPPPRDHTPPPVLYWLSGLTCNDENFTTKAGAQRVAAELGIVLVMPDTSPRGEKVANDDGYDLGQGAGFYLNATQPPWATHYRMYDYLRDELPALVQSQFNVSDRCAISGHSMGGHGALIMALKNPGKYTSVSAFAPIVNPCSVPWGIKAFSSYLGEDKNAWLEWDSCALMYASNAQDAIPTLIDQGDNDQFLADQLQPAVLAEAARQKAWPMTLRIQPGYDHSYYFIASFIEDHLRFHAQYLLK
Q: With B9 as the protein, how does the Km (p-NP-C4; 37 °C) read?
A: 700 µM

Q: And the kcat (p-NP-C4; 37 °C)?
A: 0.36 s⁻¹

Q: And the kcat/Km (p-NP-C4; 37 °C)?
A: 514 M⁻¹ s⁻¹

B10: unnamed (protein)
chain: MELALALSLIASVAAAPTATLANGDTITGLNAIINEAFLGIPFAEPPVGNLRFKDPVPYSGSLDGQKFTSYGPSCMQQNPEGTYEENLPKAALDLVMQSKVFEAVSPSSEDCLTINVVRPPGTKAGANLPVMLWIFGGGFEVGGTSTFPPAQMITKSIAMGKPIIHVSVNYRVSSWGFLAGDEIKAEGSANAGLKDQRLGMQWVADNIAAFGGDPTKVTIFGESAGSMSVMCHILWNDGDNTYKGKPLFRAGIMQSGAMVPSDAVDGIYGNEIFDLLASNAGCGSASDKLACLRGVSSDTLEDATNNTPGFLAYSSLRLSYLPRPDGVNITDDMYALVREGKYANIPVIIGDQNDEGTFFGTSSLNVTTDAQAREYFKQSFVHASDAEIDTLMTAYPGDITQGSPFDTGILNALTPQFKRISAVLGDLGFTLARRYFLNHYTGGTKYSFLSKQLSGLPVLGTFHSNDIVFQDYLLGSGSLIYNNAFIAFATDLDPNTAGLLVKWPEYTSSSQSGNNLMMINALGLYTGKDNFRTAGYDALFSNPPSFFV
Q: Which “Proxy for plastic degradation” value [8] does the source give for B10 here?
A: 0.2 mg

Q: And the “Proxy for plastic degradation” value (PET [1]; pH 8)?
A: 0 mg

B11: unnamed (protein)
chain: MRKLYLFLFLTLISPISISIFHAQCTGATVESLTNPGPYTVATLSEADGVRNGPKYAGSTIYYPTNATPPYASIAIVPGFTAAPSSVQEWGPFYASHGIVAIIIGTNSLYDQPEARALALLDALETIKQENGRATSPLIGKLDVTKLAVSGWSMGGGGAQRAAVLDNTISAVVALCPYLTSPQLNHTVPVLIFSGQSDPTAPPSQHANVHYNTTPGTTNKLLFEVKNGNHSVANSPTGGGGAVGKLALSWLKIYLEKNDCYCSVLATAIVNSTTVSSKISQSYQCNNALGVVDSKTRFNLYPNPTKDFVQVNVREMASYQLSSSTGQIVLKGIVTSSKNQIDLSKLPAGVYYLQINGETIKVIKKQ
Q: For B11, which Km (pNP-C6) is on record?
A: 300 µM

Q: What about the kcat (pNP-C6) of the same protein?
A: 8.9 s⁻¹

Q: What about the kcat/Km (pNP-C6) of the same protein?
A: 29700 M⁻¹ s⁻¹

B12: unnamed (protein)
chain: MDGVLWRVRTAALMAALLALAAWALVWASPSVEAQSNPYQRGPNPTRSALTADGPFSVATYTVSRLSVSGFGGGVIYYPTGTSLTFGGIAMSPGYTADASSLAWLGRRLASHGFVVLVINTNSRFDYPDSRASQLSAALNYLRTSSPSAVRARLDANRLAVAGHSMGGGGTLRIAEQNPSLKAAVPLTPWHTDKTFNTSVPVLIVGAEADTVAPVSQHAIPFYQNLPSTTPKVYVELDNASHFAPNSNNAAISVYTISWMKLWVDNDTRYRQFLCNVNDPALSDFRTNNRHCQ
Q: Which results are given for B12?
A: Proxy for plastic degradation [8]: 9 mg; Proxy for plastic degradation (PET [1]; pH 8): 1.5 mg
